Assays:
[1] = molecular target: neuraminidase of A/Michigan/45/2015 (H1N1), recombinant head domain (Influenza A virus A/Michigan/45/2015 …, UniProt A0A0X9QTS2, strain); assay: ELISA; settings: one partner purified
[2] = molecular target: neuraminidase of A/Wyoming/3/2003 (H3N2), recombinant head domain (Influenza A virus A/Wyoming/3/2003 …, UniProt Q595Z6, strain); assay: cell-based or functional assay
[3] = molecular target: neuraminidase of A/Moscow/10/1999 (H3N2), recombinant head domain (Influenza A virus A/Moscow/10/1999 …, strain); assay: BLI; settings: both partners purified

Binder	binding result [1]	NA inhibition of recombinant NA by enzyme-linked lectin assay (ELLA), IC50 [2] [µg/mL]	Kd [3] [nM]
HB420 (human IgG1) (antibody, V domains shown) VH: EVQLVESGAEVKKPGSSVKVSCMASGGSFGSYGFSWVRQAPGQGLEWMGGIIPLFDTPNYAQKFQGRVTITADASTSTVYMELSSLRSEDTAVYYCARDSLPYGDQNYYYGMHVWGQGTTVTVSS VL: QSALTQPASLSGSPGQSITISCSGSSSDIGDYNYVSWYQQHPGKAPKLIIYDVTNRPSGVSDRLSGSKSGTTASLTISGLQAEDEADYYCSSYGGNYNLVFGGGTKLTVL	no binding	0.19	–
HB420 fragment antigen-binding (Fab) (Fab, V domains shown) VH: EVQLVESGAEVKKPGSSVKVSCMASGGSFGSYGFSWVRQAPGQGLEWMGGIIPLFDTPNYAQKFQGRVTITADASTSTVYMELSSLRSEDTAVYYCARDSLPYGDQNYYYGMHVWGQGTTVTVSS VL: QSALTQPASLSGSPGQSITISCSGSSSDIGDYNYVSWYQQHPGKAPKLIIYDVTNRPSGVSDRLSGSKSGTTASLTISGLQAEDEADYYCSSYGGNYNLVFGGGTKLTVL	–	–	< 1
HB420 with only light chain SHMs reverted (Fab) (Fab, V domains shown) VH: EVQLVESGAEVKKPGSSVKVSCMASGGSFGSYGFSWVRQAPGQGLEWMGGIIPLFDTPNYAQKFQGRVTITADASTSTVYMELSSLRSEDTAVYYCARDSLPYGDQNYYYGMHVWGQGTTVTVSS VL: QSALTQPASVSGSPGQSITISCTGTSSDVGGYNYVSWYQQHPGKAPKLMIYDVSNRPSGVSNRFSGSKSGNTASLTISGLQAEDEADYYCSSYTSNYNLVFGGGTKLTVL	–	–	< 1
HB420 with only heavy chain SHMs reverted (Fab) (Fab, V domains shown) VH: EVQLVQSGAEVKKPGSSVKVSCKASGGTFSSYAISWVRQAPGQGLEWMGGIIPIFGTANYAQKFQGRVTITADESTSTAYMELSSLRSEDTAVYYCARDSLPYGDQNYYYGMHVWGQGTTVTVSS VL: QSALTQPASLSGSPGQSITISCSGSSSDIGDYNYVSWYQQHPGKAPKLIIYDVTNRPSGVSDRLSGSKSGTTASLTISGLQAEDEADYYCSSYGGNYNLVFGGGTKLTVL	–	–	1.1
HB420 with all SHMs reverted (Fab) (Fab, V domains shown) VH: EVQLVQSGAEVKKPGSSVKVSCKASGGTFSSYAISWVRQAPGQGLEWMGGIIPIFGTANYAQKFQGRVTITADESTSTAYMELSSLRSEDTAVYYCARDSLPYGDQNYYYGMHVWGQGTTVTVSS VL: QSALTQPASVSGSPGQSITISCTGTSSDVGGYNYVSWYQQHPGKAPKLMIYDVSNRPSGVSNRFSGSKSGNTASLTISGLQAEDEADYYCSSYTSNYNLVFGGGTKLTVL	–	–	1.8

From publication doi:10.1101/2025.06.20.660733 (bioRxiv, 2025)
